Results: the nanobody polyreactivity screen of Harvey et al. (2022)

Assay: yeast display, Sf9 membrane polyspecificity reagent, FACS + sequencing; frameworks hold sequencing errors
Summary of the method: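 Genes from sorted yeast were amplified by colony PCR, read by MiSeq 2 × 250 sequencing and filtered on CDR length. These cells carried a synthetic nanobody library in Saccharomyces cerevisiae BJ5465 and were sorted by FACS into low and high (top ~1%) gates on anti-HA and streptavidin fluorescence. Polyreactivity is labelled according to the gate of origin.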

Sequence | polyreactivity (PSR sort gate)
QVQLVESGGGLVQAGGRLRLSCAASGLIFTWNAMGWYRQAPGKERELVAAISTGGSTSYADSVKGRFTISRDNAMNTVYLQMNSMKPEDTAVYYCARDSSIWSHGSWYDYWGQGTQVTVSS | low polyreactivity
QVQLVESGGGLVQAGGSLRLSCAASGSILYVYAMGWYTQAPGKERELVAAISNRDGSTYYADSVKGRFTISRDNAKNTVYLQMNSLKPEDTAVYYCNADGYGDYSFLKYRFEYDYWGQGTQVTVSS | low polyreactivity
QVQLVESGGGLVQAGGSLRLSCAASGRIFTYYAMGWYSQAPGKERELVAAISRSGGRTYYADSVKGRFTISRDNAKNTVYLQMNSLTPEDTAVYYCAADRLSLRAYDYWGQGTQVTVSS | high polyreactivity
QVHLVETGGGLVQAGGSLRLSCGASGYIFSQYAMGCYRQAPGKERELVADITTSAGSTYYADSVKGRFTISRDNAKNTVYLQMNSVIPEDTAVYYCAADVYGHSYYDYDYWGQGTQVTVSS | low polyreactivity
QVQLVESGGGLVQAGGSLRLSCAASGSTFKAYAMGWYRQAPGKQRELVAAITKSGGRTYYADSVKGRFTISRDNAKNTVYLQMNSLKPEDTAVYYCAAVFRPDSSAYRYYYWGQGTQVTVSS | high polyreactivity
QVQLVESGGGLVQAGGSLRLSCAASGSTFVRYAMGWYRQAPGKEREFVAAISKRGGSTYYADSVKGRFTISRDIAKNTVYLQMNSLKPEDTAVYYCATYLLRDAPGLHQVGYWGQGTQVTVSS | high polyreactivity
QVQLVESGGGLVQAGGSLRLSCADSGRTLGYYAKGWYRQAPGKEREVVAAITSGGRTNYADSVKGRFTISRDNAKNTVYLQMNSLKPEDTAVYYCAAARYLSGGYEKYDYWGQGTQVTVSS | low polyreactivity
QVQLVESGGGLVQAGGSLRLSCAASGRTFQYYAMGWYRQAPGQERELVAAITSGGSTYYADSVKGRFTISRDNAKNTVYLQMNSLKPEDTAVYYCAATFYYSGHYDYWGQGTQVTVSS | low polyreactivity
QVQLVESGGGLVQAGGSLRLSCAASGRIFGRYVMGWYRQAPGKERELVAAITSGGSTYYADSVKGRFTISRDNAKNTVYLQMNSLKPEDTAVYYCATRLFYPRFYYWGQGTQVTVSS | high polyreactivity
QVQLVESGGGLVQAGGSLRLSCAASGIIFYRYAMGWYRQAPGKERELVAAISSSGGSTYYADSVKGRFTISRDNAKNTVYLQMNSLKPEDTAVYYCARVTTVYDGRGFVDVKRGYWGQGTQVTVSS | high polyreactivity
QVQLVESGGGLVQAGGSLRLSCAASGRIFKYNAKGWYRQAPGKERELVAAISGTGGSTYYADSVKGRFTISRDNAKNTVYLQMNSLKPEDTAVYYCNRRYYGHSTWKYDYWAQGTQVTVSS | high polyreactivity
QVQLVESGGGLVQAGGSLRLSCAASGSTFTRNAMGWYRQAPGKERELVATISSGGSTNYADSVKGRFTISRDNAKNTVYLQMNSLKPEDTAVYYCAKRSLYRYYYWGQGTQVTVSS | high polyreactivity
QVQLVESGGGLVQAGGSLRLSCPASGSIFNKNAMGWYRQAPGKERELVAAISSGGSTYYADSVKGRFTISRDNAKNTVYLQMNSLKPEDTAVYYCARGASFYQKFYYWGQGTQVTVSS | high polyreactivity
QVQLVESGGGLVQAGGSLRLSCAASGSIFYKNAMGWYRQAPGKERELVAVISTSGSTYYADSVKGRFTISRDNAKNTVYLQMKSLKPEDTAVYYCATKVRRWYSARSPNVRFDYWGQGTQVTVSS | high polyreactivity
QVQLVESGGGLVQAGGSLRLSCAASGRTFYRYAMGWYRQAPGNERELVAAISYSTTRTYYADSVKGRFTISRDNAKNTVYLQMNSLKPEDTAVYYCAAYGWTRFGYDYWGQGTQVTVSS | high polyreactivity
QVQLVESGGGLVQAGGILRLSCAASGIIFGYNAMGWYRQAPGKERELVAAISYGGGRTYYADSVKGRFTISRDNAKNSVYLQMNSLKPEDTAVYYCAAQYFASRSYGYDYWGQGTQVTVSS | high polyreactivity
QVQLVESGGGIVQAGGRLRLRCAASGSNFYYNAMGWYRQAPGKERELVAAITWSGGRTYYADSVKGRFTISRDNAKNTVYLQMNSLKPEDTAVYYCNARYRASRYNYWGQGTQVTVSS | high polyreactivity
QVQLVESGGGLVQAGGSLRLSCAASGIIFRRYAMGWYRQAPGKERELVAVITSGGSTNYADSVKGRFTISRDNAKNTVYLQMNSLKPEDTAVYYCAAKGWVYWIRSRYDYWGQGTQVTVSS | high polyreactivity
QVQLAESGGGLVQAGGSLRLSCAASGSTFVAYAMGWYRQAPGKERELVAAITRSGGSTYYADSVKGRFTISRDNAKNTVYLQMNSLKPEDTAVYYCAARHYRSRDGYWGQGTQVTVSS | high polyreactivity
QVQLVESGGVLDQAGRSLRLSCAASGRTFNRYAMGWYRQAPGKERDLVAAISSSGGSTYYADSVKGRFTISRDNAKNTVYLQMNSLKPEDTAVYYCNKGQYSHLNSYGDDYWGQGTQVTVSS | high polyreactivity
QVQLVESGGGLVQAGGSLRLSCAASGRTLPFNAMGWYRQAPGKERELVAAITRGGSTNYADSVKGRFTISRDNAKNTVYLQMNSLKPEDTAVYYCAARRYAWYGYRAYDYWGQGTQVTVSS | high polyreactivity
QVQLVESGGGLVQAGGSLRLSCAASGGISDVYAMGWYRQAPGKERELVAAINWSGGSTYYADSVKGRFTISRDNAKNTVYLQMNSLKPEDTAVYYCAADPGIIGTFDWYDYWGQGTQVTVSS | low polyreactivity

Sequence | polyreactivity (PSR sort gate)
QVQLQESGGGLVKAGGSLRLSCAASGNISPRDAMGWYRQAPGEERDLVASNPYSAITYYADGVKGRYTISRDNAKNTVYLQMNSLKPEDTEVYYCAVYQFTYAVFPAYWGQGSQVTVSS | low polyreactivity
QVQLVESGGGLVQAGGSLRLSCAASGSTFGVYAMGWYRQAPGKERELVASISSRGRTKYADSVKGSFTISRDNAKNTVYLQMIRLKPEDTAFYYCAARIRYLGVRDNDNYYWGQGTQVTVSS | low polyreactivity
QVQLVDSGGGLVQAGGSLRLSCAASGRIFPGKVMGWYRQAPGKERELVAAISSSGGSTYYADSVKGRFTISRDNAKNTVYLQMNSLKPEDTAVYYCAADSSDWPYDYWGQGTQVTVSS | low polyreactivity
QVQLVESGGGLVQAGGSLRLSCAASGRIFVINAMGWYRQAPGKEREFVAGITSSGNTNYADSVKGRFTISRDNAKNTVYLQMNSLKPEDTAVYYCNAQVYLTWLTYWLYYPPNDYWGQGTQVTVSS | low polyreactivity
QVQLVESGGGLVQAGGSLRLICAASGLTFISYAMGWYRQAPGKERELVAAITYSGGSTYYADSVKGRFTISRDNAKNTVYLQMNSLKPEDTAVYYCAVEIPGLLWYLPTYDYWGQGTQVTVSS | low polyreactivity
QVQLGESGGGLVQAGGSLRLSCAASGRNFSTYTMGWYRQATWKERELVASISWSGVRTRYADSVKGRFTISRDNAKNTVYLQMNSLKPEDTAVYYCAAVVPYYYRSPSNHMGYWGQGTQVTVSS | high polyreactivity
QVQLVESGGGLVQAGGSLRLSCAASGSTFFVNAMGWYRQAPGKERELVASITVSSGRTYYADSVKGRFTISRDNAKNTVYLQMNSLKPEDTAVYYCAARHLYWRREGYYWGQGTQVTVSS | high polyreactivity
QVQLVESGGGLVQAGGSLRLSCAASGSTFTTNAMGWYRQAPGKERELVATISRGGSTYYADSVKGRFTISRDNAKNTVYIQMNRLKPEDTAVYYCATDVQVPGIGRSVYAYEYWGQVTQVTVSS | low polyreactivity
QVQLVESGGGLVQSGGSLRLSCAASGYIFGYYAMGWYRQAPGKERELVADITWRGDSTYADSVKGRFTISRDNAKNTVYLQMNSLKPEDTAVYYCAADIATEYWYTGYDHWGQGTQVNVSS | low polyreactivity
KVQLVESGGGLVQAGGSLRLSCAASGFIFYYYAMGWYRQAPGKERELVAAISTDGGSTYYADSVKGRFTISRDNAKNTVYLQMNSLKPEDTAVYYCNAPYYGWGYWPLEYIRYEYWGQGTQVTVSS | low polyreactivity
QVQLQESGGGLVQAGGSLRMSCAASGNIFDADIMGWYRQAPGKERELVASITDGRRTNYADSVKGRYTISRDSEKNTVYLQMNSLKPEDTAVYYCAAIAYPVVPTYFDYDSDYFHWGQGTQVTVIS | high polyreactivity
QDQLVESGGGLDQARGSLRLSCAACGSTFPRYAMGWSRQAPGKERELVAAITASGGSTYYADSVKGRFTISRDNAKNPVYLQMNSLKPEDTAVYYCATPSLYTGYDYWGQGTQVTVSS | low polyreactivity
QVQLVESGGGLVQAGGSLRLSCAASGRTIGFNGMGWYRQAPGKERELVAAITRSGGNTYADSVKGRFTISRDNAKNTVYLQMNSLKPEDTAVYYCATTYVGVTLTGPGDYWGQGTQVTVSS | low polyreactivity
QVQLVESGGGLVQAGGSHRLSCAASGRIFRPYAMGWYRQAPGKEREFVATITRSVGRTYYADSVKGRFTISRDNAKNTVYLQMNSLKPEDTAVYYCATKYIRGTRADVYRFDYWGQGTQVTVSS | high polyreactivity
PVQLVESGGGIVQAGGSLRLSCAASGTSFEYNAMGWSRPAPGKERELVAAITWSVGSTYYADSVKGRFTISRDNAKNTVYLQMNSLKPEDTAVYYCAAFDTASVYEFDYWGQGTQVTVSS | low polyreactivity
QVQLVESGGGLGQAGGSLRLSCAASGITFVVYAMGWYRQAPGKERELVATISSGGSTNYADSVKGRFTISRDNAKNTVYLQMNSLKPEDTAVYYCNRVSVYRSSHLLWGGYWGQGTQVTVSS | low polyreactivity
QVQLVESAGGLVQAGGSLSLICAASGSTFVVNALGWYRQAPGKERELVAAITTSGGSTYYADSVKGRFTISRDNAKNTVYLQMNSLKPEDTAVYYCAAETWGYYGYGVDYDYWGQGTQVTVSS | high polyreactivity
QVQLVESGGGLVQAGGRLRLSCAASGTTFFLYAMGWYRQAPGKERELVASISDGSSTNYADSVKVRFTISRDNAKNTVYLQMNSLKPEDTAVYYCAADFERRRYDYWGQGTQVTVSS | low polyreactivity
QVQLVESGGGLVQAGGSLRLSCAASGGTFRVYAMGWYRQAPGKERELVASISWTVGGTYADSVKGRFTISRDNAKNTVYLQMNSLKPEDTAVYYCAAGGEWVNPYFPSSLDYWGQGTQVTVSS | low polyreactivity
QVQLVESGAGLVQAGGSLRLSSAASGGTFGHYVMGWYRPAPGKERELVAVISRRGGSTYYADSVKGRFTISRDTAKNTVYLQMNSLKPEDTAVYYCAAYQDVSYFKYSPYDYWGQGTQVTVSS | high polyreactivity
QVQLVESGGGLVQAGGSLRLSCAASGSIFTPYAMVWYRQAPGKERELVATISWRGGSTYADSVKGRFTISRDNAKNTVYLQMNSLKPEDTAVYYCNKEYTFSLYDYWGQGSQVTVSS | low polyreactivity
